Measured values reported in the supplement of paper PMC11908140.

B1: library; numbered along this chain (parent)
chain: MRKPRAAVGSGHRKQAASQEGRQKHAKNNSQAKPSACDGLARQPEEVVLQASVSSYHLFRDVAEVTAFRGSLLSWYDQEKRDLPWRRRAEDEMDLDRRAYAVWVSEVMLQQTQVATVINYYTGWMQKWPTLQDLASASLEEVNQLWAGLGYYSRGRRLQEGARKVVEELGGHMPRTAETLQQLLPGVGRYTAGAIASIAFGQATGVVDGNVARVLCRVRAIGADPSSTLVSQQLWGLAQQLVDPARPGDFNQAAMELGATVCTPQRPLCSQCPVESLCRARQRVEQEQLLASGSLSGSPDVEECAPNTGQCHLCLPPSEPWDQTLGVVNFPRKASRKPPREESSATCVLEQPGALGAQILLVQRPNSGLLAGLWEFPSVTWEPSEQLQRKALLQELQRWAGPLPATHLRHLGEVVHTFSHIKLTYQVYGLALEGQTPVTTVPPGARWLTQEEFHTAAVSTAMKKVFRVYQGQQPGTCMGSKRSQVSSPCSRKKPRMGQQVLDNFFRSHISTDAHSLNSAAQ

Variants of: B1
Assay: 8OG:A repair function score (normalized; synonymous = 0, nonsense = -1) (normalized log-likelihood score); higher = more repair activity (WT-like)
Details: with 8OG:A DNA repair reporter (GFP) in HEK-293 MUTYH KO cells
How it was run: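 MUTYH knockout HEK-293 cells carrying lentiviral MUTYH cDNA NNN codon-scan libraries were grown with 10 pg/ml doxycycline and co-transfected with mCherry and a GFP reporter of 8OG:A repair. Viable mCherry+ cells were sorted at 72 h into GFP+ (repair) and GFP− bins, with three replicates per tile, and tile amplicons were sequenced. Rosace fitness scores for each tile were turned into a normalized repair function score anchored on the synonymous and nonsense distributions. Synonymous medians were set to 0 and nonsense medians to -1, and variants below 300 counts per million at the start were dropped.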

| Variant | 8OG:A repair function score |
| --- | --- |
| H57M | -1.63 |
| H57E | -0.74 |
| H57L | -0.734 |
| W146P | -1.14 |
| A6L | 0.01 |
| W235A | -0.284 |
| V485A | -0.00727 |
| V485H | 0.0165 |
| F250K | -1.03 |
| H312W | -0.103 |
| P377V | -0.171 |
| D61K | 0.00675 |
| L349P | -0.901 |
| L131F | 0.00215 |
| N119M | -0.216 |
| E342I | -0.00523 |
| D300C | -0.0631 |
| G188A | -0.365 |
| R86G | -1.82 |
| G186H | -0.754 |
| G186E | -0.989 |
| G186S | -0.34 |
| T324A | -0.0315 |
| A259I | -0.953 |

| Variant | 8OG:A repair function score |
| --- | --- |
| A259S | -0.0739 |
| E140M | -0.00715 |
| S197N | -1.17 |
| S197V | -0.973 |
| L355D | -0.182 |
| A513L | -0.00457 |
| F59L | -0.095 |
| F59R | -0.753 |
| F59H | -0.439 |
| G475F | -0.00573 |
| F505V | 0.00446 |
| F505G | 0.00871 |
| G368V | -0.27 |
| L430F | 0.0205 |
| V415A | 0.0175 |
| L183H | 0.0988 |
| L183A | -0.0103 |
| L432D | -0.57 |
| R163K | -0.132 |
| P299D | 0.0184 |
| P299S | -0.0568 |
| L257C | -0.298 |
| V379G | -0.37 |
| V379I | -0.327 |

| Variant | 8OG:A repair function score |
| --- | --- |
| V379K | -0.667 |
| Q323H | -0.0776 |
| N329R | -0.0858 |
| V242D | -0.978 |
| V242M | -0.625 |
| V242N | -0.576 |
| P402T | -0.26 |
| Q363M | -0.284 |
| R398A | 0.0255 |
| R398V | -0.2 |
| L313E | -0.601 |
| A405M | -0.161 |
| S487L | -5.82e-05 |
| A254V | 0.0529 |
| A254E | -0.62 |
| P273A | -0.171 |
| P273W | -0.748 |
| L134G | -0.824 |
| L134Y | -0.464 |
| S480K | 0.0154 |
| A101H | -0.0529 |
| Q286V | -0.0346 |
| Q288I | -0.0801 |
| Q288S | -0.0113 |

| Variant | 8OG:A repair function score |
| --- | --- |
| I221C | -0.728 |
| I221G | -0.993 |
| Q182P | -0.18 |
| H416M | -0.755 |
| H416V | -0.101 |
| G170E | -0.0272 |
| Q310I | 0.0174 |
| Q310R | -0.0435 |
| C262Q | -1.27 |
| T66R | -0.0902 |
| V414Q | -0.321 |
| S378H | -0.255 |
| P44Q | -0.113 |
| A345M | -0.102 |
| P34V | -0.0896 |
| P317H | -0.0747 |
| P317M | 0.112 |
| K80S | -0.227 |
| T263H | -0.124 |
| Q132E | -0.0366 |
| Q132R | 0.00437 |
| V328D | -0.227 |
| L360K | -1.23 |
| L516P | 0.00373 |

| Variant | 8OG:A repair function score |
| --- | --- |
| L516Y | 0.0181 |
| G372I | -0.775 |
| L158R | -1.09 |
| T436S | -0.173 |
| L290W | -0.0672 |
| L290F | -0.0363 |
| R336H | -0.173 |
| A196L | -0.68 |
| E395A | -0.162 |
| R175K | -0.133 |
| S344W | -0.0913 |
| P267C | -0.372 |
| D91M | 0.00436 |
| Q202W | -0.586 |
| E45R | 0.0409 |
| E45P | -0.0802 |
| K464E | -0.152 |
| R283I | -0.0881 |
| I421D | -0.852 |
| G248D | -0.876 |
| C347L | -0.18 |
| C347F | -0.387 |
| D243P | -0.554 |
| R217V | -1.01 |

| Variant | 8OG:A repair function score |
| --- | --- |
| R217I | -1.03 |
| Q239L | -0.403 |
| H420E | -0.781 |
| A147M | -0.0248 |
| E451T | -0.12 |
| E160K | -0.0797 |
| W85M | -0.682 |
| S226C | -0.132 |
| R42P | -0.176 |
| A371T | -0.307 |
| A199M | -0.87 |
| A199F | -1.13 |
| L448S | -0.184 |
| Q43T | 0.0245 |
| Q43E | 0.0951 |
| A238V | 0.0238 |
| P185K | -0.102 |
| P185H | -0.43 |
| T122W | -0.16 |
| T122K | -0.158 |
| P494Q | -0.000555 |
| P494C | 0.0281 |
| P494T | 0.0124 |
| Q144N | -0.299 |

| Variant | 8OG:A repair function score |
| --- | --- |
| A63Q | -0.105 |
| G39L | 0.0565 |
| Q113N | -0.167 |
| A177H | -0.14 |
| A177M | -0.0819 |
| R467F | -0.0681 |
| V47N | 0.0108 |
| V47H | 0.0522 |
| L169W | -0.0366 |
| R506I | 0.0189 |
| D133S | 0.0612 |
| V165G | -0.877 |
| L392W | -1.27 |
| L392C | -0.389 |
| Q111T | -0.764 |
| T116R | 0.0298 |
| W124H | -0.678 |
| W124M | -1.62 |
| S490E | -0.0309 |
| Y428V | -1.03 |
| Y428H | -0.753 |
| R482P | 0.0273 |
| R482G | 0.0105 |
